Experiments:
[1] = system: herpes simplex virus (topical application) and hepatitis C infection; details: before versus after contact with the virus; cited from earlier work
[2] = system: Human Rhinovirus A16 (clinical strain: QCHRV.16); assay: Apical Rhinovirus replication by quantitative RT-PCR (Example 6); type: cell-based; details: Example 6, 24 hours pi (D1)
[3] = in some studies; cited from earlier work

B1: lactoferrin: glycoprotein of approximately 703 amino acids and approximately 80 kD in exocrine secretions (protein, UniProt P02788 20-710, looked up)
Lactotransferrin: GRRRSVQWCAVSQPEATKCFQWQRNMRKVRGPPVSCIKRDSPIQCIQAIAENRADAVTLDGGFIYEAGLAPYKLRPVAAEVYGTERQPRTHYYAVAVVKKGGSFQLNELQGLKSCHTGLRRTAGWNVPIGTLRPFLNWTGPPEPIEAAVARFFSASCVPGADKGQFPNLCRLCAGTGENKCAFSSQEPYFSYSGAFKCLRDGAGDVAFIRESTVFEDLSDEAERDEYELLCPDNTRKPVDKFKDCHLARVPSHAVVARSVNGKEDAIWNLLRQAQEKFGKDKSPKFQLFGSPSGQKDLLFKDSAIGFSRVPPRIDSGLYLGSGYFTAIQNLRKSEEEVAARRARVVWCAVGEQELRKCNQWSGLSEGSVTCSSASTTEDCIALVLKGEADAMSLDGGYVYTAGKCGLVPVLAENYKSQQSSDPDPNCVDRPVEGYLAVAVVRRSDTSLTWNSVKGKKSCHTAVDRTAGWNIPMGLLFNQTGSCKFDEYFSQSCAPGSDPRSNLCALCIGDEQGENKCVPNSNERYYGYTGAFRCLAENAGDVAFVKDVTVLQNTDGNNNEAWAKDLKLADFALLCLDGKRKPVTEARSCHLAMAPNHAVVSRMDKVERLKQVLLHQQAKFGRNGSDCPDKFCLFQSETKNLLFNDNTECLARLHGKTTYEKYLGPQYVAGITNLKKCSTSPLLEACEFLRK
protection against viral infection [1]: protective before contact with the virus but not after

B2: soluble ICAM-1: soluble form of intercellular adhesion molecule 1, sole antiviral agent of formulations R3 and R4 (protein, UniProt P05362 28-480, looked up)
extracellular domain: QTSVSPSKVILPRGGSVLVTCSTSCDQPKLLGIETPLPKKELLLPGNNRKVYELSNVQEDSQPMCYSNCPDGQSTAKTFLTVYWTPERVELAPLPSWQPVGKNLTLRCQVEGGAPRANLTVVLLRGEKELKREPAVGEPAEVTTTVLVRRDHHGANFSCRTELDLRPQGLELFENTSAPYQLQTFVLPATPPQLVSPRVLEVDTQGTVVCSLDGLFPVSEAQVHLALGDQRLNPTVTYGNDSFSAKASVSVTAEDEGTQRLTCAVILGNQSQETLQTVTIYSFPAPNVILTKPEVSEGTEVTVKCEAHPRAKVTLNGVPAQPLGPRAQLLLKATPEDNGRSFSCSATLEVAGQLIHKNQTRELRVLYGPRLDERDCPGNWTWPENSQQTPMCQAWGNPLPELKCLKDGTFPLPIGESVTVTRDLEGTYLCRARSTQGEVTRKVTVNVLSPRYE
modifications: extracellular domain
notes: soluble form of intercellular adhesion molecule 1, sole antiviral agent of formulations R3 and R4
replication of HRV-A16 virus at D1 [2]: inhibited replication

B3: bovine lactoferrin: bovine form of the glycoprotein lactoferrin, 69% homology to human lactoferrin (protein, UniProt P24627 20-708, looked up)
Lactotransferrin: APRKNVRWCTISQPEWFKCRRWQWRMKKLGAPSITCVRRAFALECIRAIAEKKADAVTLDGGMVFEAGRDPYKLRPVAAEIYGTKESPQTHYYAVAVVKKGSNFQLDQLQGRKSCHTGLGRSAGWIIPMGILRPYLSWTESLEPLQGAVAKFFSASCVPCIDRQAYPNLCQLCKGEGENQCACSSREPYFGYSGAFKCLQDGAGDVAFVKETTVFENLPEKADRDQYELLCLNNSRAPVDAFKECHLAQVPSHAVVARSVDGKEDLIWKLLSKAQEKFGKNKSRSFQLFGSPPGQRDLLFKDSALGFLRIPSKVDSALYLGSRYLTTLKNLRETAEEVKARYTRVVWCAVGPEEQKKCQQWSQQSGQNVTCATASTTDDCIVLVLKGEADALNLDGGYIYTAGKCGLVPVLAENRKSSKHSSLDCVLRPTEGYLAVAVVKKANEGLTWNSLKDKKSCHTAVDRTAGWNIPMGLIVNQTGSCAFDEFFSQSCAPGADPKSRLCALCAGDDQGLDKCVPNSKEKYYGYTGAFRCLAEDVGDVAFVKNDTVWENTNGESTADWAKNLNREDFRLLCLDGTRKPVTEAQSCHLAVAPNHAVVSRSDRAAHVKQVLLHQQALFGKNGKNCPDKFCLFKSETKNLLFNDNTECLAKLGGRPTYEEYLGTEYVTAIANLKKCSTSPLLEACAFLTR
concentration required for an antimicrobial effect relative to human lactoferrin [3]: 1/10

— patent US12594285B2, “Compositions and methods for protecting against airborne pathogens and irritants” (APPLIED BIOLOGICAL LABORATORIES, INC., priority 2016, dated 2026)
